{"source": "patent US20160153020A1", "about": "(GLYCOTREK, published 2016)", "binders": {"B1": {"name": "infliximab produced in CHO cell lines (antibody, V domains shown)", "VH": "EVKLEESGGGLVQPGGSMKLSCVASGFIFSNHWMNWVRQSPEKGLEWVAEIRSKSINSATHYAESVKGRFTISRDDSKSAVYLQMTDLRTEDTGVYYCSRNYYGSTYDYWGQGTTLTVSA", "VL": "DILLTQSPAILSVSPGERVSFSCRASQFVGSSIHWYQQRTNGSPRLLIKYASESMSGIPSRFSGSGSGTDFTLSINTVESEDIADYYCQQSHSWPFTFGSGTNLEVKR", "modifications": "single N-glycosylation site at position Asn297 ; chain 1 pos 300: Asn297 (EU) carries the single N-glycan; the glycoform depends on the CHO line (Inf or Inf-Sial)"}}, "molecular_target": "T1, DC-SIGN (human lectin receptor) expressed on a recombinant HEK cell line (human, UniProt Q9NNX6 1-404)", "T1 construct": "whole, on cells; The construct in the HEK cell line is not described", "T1 sequence (looked up)": "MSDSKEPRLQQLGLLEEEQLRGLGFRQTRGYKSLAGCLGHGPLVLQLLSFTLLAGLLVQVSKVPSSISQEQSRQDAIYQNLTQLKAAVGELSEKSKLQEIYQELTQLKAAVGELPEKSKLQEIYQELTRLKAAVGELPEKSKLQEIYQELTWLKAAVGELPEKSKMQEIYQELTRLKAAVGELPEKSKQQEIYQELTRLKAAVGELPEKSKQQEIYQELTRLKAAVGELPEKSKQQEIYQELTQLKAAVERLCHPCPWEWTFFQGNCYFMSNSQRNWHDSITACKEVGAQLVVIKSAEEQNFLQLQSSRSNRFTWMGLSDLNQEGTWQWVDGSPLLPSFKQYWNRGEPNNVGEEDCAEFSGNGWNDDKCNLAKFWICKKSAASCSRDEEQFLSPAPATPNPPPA", "assay": "binding to recombinant HEK cells expressing DC-SIGN (method not described)"}
{"binder": "B1", "values": [{"measurement": "binding result", "value": "no binding"}]}
